Measured values: patent US7485618B2, “FGF-5 supported and binding peptides” (Genencor International, Inc., priority 2003, dated 2009)

Target: T1, FGF-5 (Homo sapiens, UniProt P12034)
T1 construct: host or cells: FGF-5 added exogenously to NR6R-3T3 murine fibroblasts
T1 sequence (P12034 21-268): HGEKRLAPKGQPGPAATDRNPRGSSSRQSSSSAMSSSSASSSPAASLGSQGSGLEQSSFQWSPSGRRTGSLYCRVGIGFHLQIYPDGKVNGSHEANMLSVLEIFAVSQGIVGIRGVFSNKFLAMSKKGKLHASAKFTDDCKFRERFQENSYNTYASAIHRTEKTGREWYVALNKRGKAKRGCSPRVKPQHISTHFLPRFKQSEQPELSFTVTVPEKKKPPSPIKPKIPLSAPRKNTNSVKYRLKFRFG
Test: BLA binding assay on FGF-5 coated plates, nitrocefin readout
Details: purified peptide-BLA fusions at 0.1 nM, bound to FGF-5
Procedure: This Example describes secondary screening methods used to analyze FGF-5 binding npeptides. Individual clones were picked and grown up in 5 ml LB+5 ppm CMP overnight at 37° C. The cell pastes were then treated with 125μ of B-PER reagent (Pierce) for 30 min with slow mixing. COSTAR plates (96-well) were coated with 0.1 μg (100 μl of 1 μg/ml) FGF-5, carrier-free (R&D Systems #237-F5/CF, Lot #GQ18304A) with gentle rocking at 4° C. overnight, followed by blocking with Superblock blocking buffer (Pierce) for several hours at room temperature. Then, 100 μl B-Per treated supernatant from individual clones from pGV02-L were added to the FGF-5 coated plates. After one hour, plates were washed six times with PBS, 0.05% TWEEN®-20 and 200 μl of nitrocefin assay buffer containing 0.1 mg/ml nitrocefin (Oxoid) was added to measure residual bound beta-lactamase activity, using Abs490/min. Control wells contained pCB04 (See, FIG. 1C) beta-lactamase as a control. […] These clones were sequenced, and the results are provided in Table 1, where the first column is the name of the peptide, the second column is the nucleotide sequence and the third column is the amino acid sequence of the peptide:
Cell pastes were harvested from the 200 ml cell cultures described in Example 6, by centrifugation at 3,000×g for 10 min. The pastes were then treated with 25 ml of B-PER reagent (Pierce) for 40 min with slow mixing. The extract was separated by centrifugation at 20,000 g for 20 min. BLA activity of all liquid fractions was assayed using nitrocefin, and the concentration of fusion proteins in each fraction was calculated assuming the same specific activity as the WT enzyme. Fusion proteins were purified by IMAC chromatography (See, FIG. 4). The imidazole-eluted BLA-active fractions were pooled and the purity was found better than 95% as checked by SDS-PAGE. (See, FIG. 5).
The binding (BLA assay) was repeated using different peptide concentrations to see a dose response. To verify specific binding, the assay was also done using an irrelevant target. The results are shown in FIG. 6 and in Table 2, below.

| Sequence | Percent Bound at 0.1 nM [%] |
| --- | --- |
| CHYLLTNYC (synthesized FGF-5 binding peptide) [2H9, tested as BLA fusion] | 5 |
| CEEIWTMLC (synthesized FGF-5 binding peptide) [1A6, tested as BLA and BBI/BCE fusions] | 8 |
| CRIHLAHKC (synthesized FGF-5 binding peptide) [2H10, tested as BLA fusion] | 8 |
| CLTVLWTTC (synthesized FGF-5 binding peptide) [2E2, tested as BLA and BBI/BCE fusions] | 7 |
